Each block holds one sequence with its values, some of them ahead of it.
Columns and labels:
HLA-A*02:01 [1] = assay: IEDB peptide-MHC binding, purified MHC/competitive/fluorescence; ≥ and ≤ were set here for values at or beyond the usual limits of such assays
HLA-A*24:02 = assay: as above
HLA-A*30:01 = assay: IEDB peptide-MHC binding, purified MHC/competitive/radioactivity; filed as Kd, often an IC50 or EC50 that approximates it; ≥ and ≤ were set here for values at or beyond the usual limits of such assays
HLA-A*32:01 = assay: as above; conditions: source organism: Mammarenavirus brazilense
HLA-A*01:01 [2] = assay: as above
HLA-A*26:01 = assay: as above
HLA-A*29:02 = assay: as above; conditions: source organism: Mammarenavirus brazilense
HLA-A*30:02 = assay: as above
HLA-B*08:01 = assay: as above
HLA-B*15:01 = assay: as above
HLA-A*02:06 = assay: as above
HLA-B*44:02 = assay: as above; conditions: source organism: Dengue virus 3 Martinique/1243/1999
HLA-B*40:01 = assay: as above
HLA-A*31:01 = assay: IEDB peptide-MHC binding, purified MHC/direct/fluorescence; filed as Kd, often an IC50 or EC50 that approximates it; ≥ and ≤ were set here for values at or beyond the usual limits of such assays
HLA-A*03:01 = assay: as above; conditions: source organism: Brucella melitensis
HLA-A*02:01 [3] = assay: IEDB peptide-MHC binding, purified MHC/competitive/radioactivity; filed as Kd, often an IC50 or EC50 that approximates it; ≥ and ≤ were set here for values at or beyond the usual limits of such assays
HLA-A*02:03 = assay: as above; conditions: source organism: Homo sapiens
HLA-A*02:02 = assay: as above; conditions: source organism: Homo sapiens
HLA-A*02:01 [4] = assay: IEDB peptide-MHC binding, purified MHC/competitive/fluorescence; filed as Kd, often an IC50 or EC50 that approximates it; ≥ and ≤ were set here for values at or beyond the usual limits of such assays
HLA-A*01:01 [5] = assay: IEDB peptide-MHC binding, purified MHC/direct/fluorescence; filed as Kd, often an IC50 or EC50 that approximates it; ≥ and ≤ were set here for values at or beyond the usual limits of such assays; conditions: source organism: Influenza A virus (A/Moscow/343/2003(H3N2))
HLA-A*33:01 = assay: IEDB peptide-MHC binding, purified MHC/competitive/radioactivity; filed as Kd, often an IC50 or EC50 that approximates it; ≥ and ≤ were set here for values at or beyond the usual limits of such assays; conditions: source organism: SARS coronavirus Tor2
HLA-A*68:01 = assay: as above; conditions: source organism: SARS coronavirus Tor2
[6] = source organism: Vaccinia virus WR
[7] = source organism: Dengue virus 4 Philippines/H241/1956
[8] = source organism: Mammarenavirus brazilense
[9] = source organism: Dengue virus 1 Brazil/97-11/1997
[10] = source organism: Dengue virus 3 Martinique/1243/1999
[11] = source organism: Sudan ebolavirus
[12] = source organism: Zaire ebolavirus
[13] = source organism: Dengue virus 2 Jamaica/1409/1983
[14] = source organism: Vaccinia virus
[15] = source organism: Dengue virus 1 Singapore/S275/1990

Sequence: ASNIVLDQI
IC50 (HLA-A*02:01 [1]; [6]): ≥ 86200 nM | IC50 (HLA-A*24:02; [6]): 5240 nM

Sequence: KGKRALAPPV
Kd (HLA-A*30:01; [7]): 2.27 nM

Sequence: TTKNGQPRK
Kd (HLA-A*30:01; [6]): 0.233 nM

Sequence: KTLHSSVQSY
Kd (HLA-A*32:01): 527 nM | Kd (HLA-A*01:01 [2]; [8]): 4920 nM | Kd (HLA-A*26:01; [8]): ≥ 36800 nM | Kd (HLA-A*30:01; [8]): 573 nM | Kd (HLA-A*29:02): 6180 nM | Kd (HLA-A*30:02; [8]): 73.5 nM

Sequence: CTREEFISK
Kd (HLA-A*30:01; [7]): 21.1 nM

Sequence: YIKFIFLQM
Kd (HLA-B*08:01; [6]): 8.58 nM | Kd (HLA-B*15:01; [6]): 1350 nM

Sequence: YLKEEQDQQY
Kd (HLA-B*15:01; [7]): 7.59 nM | Kd (HLA-A*01:01 [2]; [7]): 15600 nM

Sequence: AQMWQLMYF
Kd (HLA-B*15:01; [9]): 1.58 nM | Kd (HLA-A*02:06; [9]): 9.54 nM

Sequence: AEIPLQWIAS
Kd (HLA-B*44:02): 200 nM | Kd (HLA-B*40:01; [10]): 2240 nM

Sequence: LDRPHTPQF
IC50 (HLA-A*24:02; [11]): 23800 nM

Sequence: TFKKSGAIK
Kd (HLA-A*30:01; [10]): 1200 nM

Sequence: RVRIPDVAR
Kd (HLA-A*31:01; source organism: Brucella melitensis): 23.4 nM | Kd (HLA-A*03:01): 293 nM

Sequence: AWQSVGHMM
IC50 (HLA-A*02:01 [1]; [12]): ≥ 180000 nM | IC50 (HLA-A*24:02; [12]): 34700 nM

Sequence: ETWILRHPGF
Kd (HLA-A*26:01; [13]): 1380 nM | Kd (HLA-A*30:01; [13]): 12300 nM

Sequence: AQNALDNLVM
Kd (HLA-B*15:01; [9]): 2.02 nM

Kd (HLA-A*02:01 [3]; source organism: Homo sapiens): ≥ 24300 nM | Kd (HLA-A*02:03): 13600 nM | Kd (HLA-A*02:02): 16400 nM | Kd (HLA-A*02:06; source organism: Homo sapiens): ≥ 78700 nM
Sequence: DLEDLKDQI

Sequence: IWKVNPEID
IC50 (HLA-A*24:02; [12]): 62100 nM

Sequence: GLLEAGNSL
Kd (HLA-A*02:01 [4]; [6]): 3.2 nM

Kd (HLA-A*02:01 [4]; source organism: Escherichia coli O139:H28 str. E24377A): 3.4 nM
Sequence: ALAWSLQML

Sequence: KLHSGVDVFY
Kd (HLA-B*15:01; [7]): 2.76 nM | Kd (HLA-A*01:01 [2]; [7]): 2870 nM | Kd (HLA-A*30:02; [7]): 12.1 nM

Sequence: DRDINPIVK
IC50 (HLA-A*24:02; [14]): 33500 nM

Sequence: HTAEAGGRAY
Kd (HLA-B*15:01; [13]): 115 nM | Kd (HLA-A*01:01 [2]; [13]): ≥ 70400 nM | Kd (HLA-A*26:01; [13]): 24.6 nM | Kd (HLA-A*30:02; [13]): 25.1 nM

Sequence: VMVMVGATM
Kd (HLA-B*15:01; [13]): 2.77 nM

Sequence: HTKIDSMFL
IC50 (HLA-A*02:01 [1]; source organism: Variola virus): 53700 nM | Kd (HLA-A*30:01; [6]): 1.46 nM

Sequence: DTKIDLWSY
Kd (HLA-A*01:01 [5]): ≥ 20000 nM

Sequence: ALHQVFGAIY
Kd (HLA-B*15:01; [13]): 4.38 nM | Kd (HLA-A*30:02; [13]): 71.8 nM

Sequence: ATGKCNPNL
IC50 (HLA-A*02:01 [1]; [11]): 12300 nM | IC50 (HLA-A*24:02; [11]): ≥ 142000 nM

Sequence: GQITWRDMAH
Kd (HLA-B*15:01; [10]): 153 nM

Sequence: KEISSMLNIM
Kd (HLA-B*40:01; [9]): 11.1 nM

Sequence: ALRANSAVK
Kd (HLA-A*33:01): ≥ 77700 nM | Kd (HLA-A*68:01): ≥ 26400 nM | Kd (HLA-A*31:01; source organism: SARS-CoV1): 479 nM

Sequence: IMAVGIVSIL
Kd (HLA-B*08:01; [15]): 173 nM | Kd (HLA-B*15:01; [15]): 8.03 nM

Sequence: RLRGEARKTF
Kd (HLA-B*15:01; [13]): 49.3 nM

Sequence: RVRISLIYL
Kd (HLA-A*30:01; [6]): 0.0915 nM

Sequence: IYRGTTFAE
IC50 (HLA-A*24:02; [12]): 9880 nM

Sequence: VVKATYLLK
Kd (HLA-A*30:01; [6]): 0.32 nM

Sequence: CINGVCWTA
Kd (HLA-A*02:01 [3]; source organism: hepatitis C virus genotype 1a): 2700 nM

Sequence: MVCPNINAF
Kd (HLA-B*15:01; [6]): 22 nM

Sequence: NLNVTTQSI
IC50 (HLA-A*02:01 [1]; [14]): 44700 nM | IC50 (HLA-A*24:02; [14]): 11100 nM

Sequence: YIRFRKNHI
Kd (HLA-B*08:01; [6]): 1.44 nM | Kd (HLA-B*15:01; [6]): 1010 nM

From the Immune Epitope Database (IEDB)
